Experimental data taken from the supplement of paper PMC9112550, “Optimization of the antimicrobial peptide Bac7 by deep mutational scanning” (BMC Biology, 2022).

Test system: Escherichia coli TOP10
Assay: shrunken log2 fold change of peptide-encoding DNA abundance (4.5 h post-induction vs induction); higher = less antimicrobial activity (less host growth inhibition)
Conditions: time post-induction: 4.5 h; library: site-saturation at positions 5, 18, 19, 20
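Note: peptides expressed intracellularly from a pBAD plasmid library in pooled LB shake-flask culture, induced with 0.3% L-arabinose, DNA abundance read by NGS, three biological replicates, DESeq2 with apeglm shrinkage.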

RRIRYRPPRLPRPRPRPTMVPRP
shrunken log2 fold change: -0.269

RRIRLRPPRLPRPRPRPRVNPRP
shrunken log2 fold change: -0.155

RRIRIRPPRLPRPRPRPYDCPRP
shrunken log2 fold change: 0.0019

RRIRGRPPRLPRPRPRPEDPPRP
shrunken log2 fold change: 1.38

RRIRKRPPRLPRPRPRPNTWPRP
shrunken log2 fold change: 0.0309

RRIRHRPPRLPRPRPRPKSIPRP
shrunken log2 fold change: -0.136

RRIRKRPPRLPRPRPRPKTNPRP
shrunken log2 fold change: 0.485

RRIRDRPPRLPRPRPRPYPDPRP
shrunken log2 fold change: -0.27

RRIRPRPPRLPRPRPRPDCLPRP
shrunken log2 fold change: 0.0136

RRIRMRPPRLPRPRPRPESMPRP
shrunken log2 fold change: 2.6

RRIRQRPPRLPRPRPRPHSIPRP
shrunken log2 fold change: 0.0425

RRIRSRPPRLPRPRPRPAFFPRP
shrunken log2 fold change: 0.328

RRIRKRPPRLPRPRPRPEFDPRP
shrunken log2 fold change: 2.46

RRIRDRPPRLPRPRPRPARQPRP
shrunken log2 fold change: 0.212

RRIRARPPRLPRPRPRPMSSPRP
shrunken log2 fold change: 0.0476

RRIRIRPPRLPRPRPRPLHYPRP
shrunken log2 fold change: -0.779

RRIRQRPPRLPRPRPRPRKVPRP
shrunken log2 fold change: -0.00271

RRIRRRPPRLPRPRPRPMRYPRP
shrunken log2 fold change: 0.236

RRIRMRPPRLPRPRPRPQAKPRP
shrunken log2 fold change: 0.0296

RRIRERPPRLPRPRPRPAYNPRP
shrunken log2 fold change: -0.449

RRIRVRPPRLPRPRPRPYCMPRP
shrunken log2 fold change: -0.898

RRIRWRPPRLPRPRPRPMMPPRP
shrunken log2 fold change: 0.0187

RRIRARPPRLPRPRPRPENRPRP
shrunken log2 fold change: 0.0495

RRIRKRPPRLPRPRPRPSHEPRP
shrunken log2 fold change: -0.218

RRIRWRPPRLPRPRPRPYMKPRP
shrunken log2 fold change: -0.459

RRIRHRPPRLPRPRPRPLQIPRP
shrunken log2 fold change: 0.0781

RRIRTRPPRLPRPRPRPSSSPRP
shrunken log2 fold change: -0.164

RRIRRRPPRLPRPRPRPFTVPRP
shrunken log2 fold change: -0.118

RRIRYRPPRLPRPRPRPSDTPRP
shrunken log2 fold change: -1.27

RRIRERPPRLPRPRPRPGLYPRP
shrunken log2 fold change: -0.233

RRIRWRPPRLPRPRPRPQEYPRP
shrunken log2 fold change: -0.0612

RRIRKRPPRLPRPRPRPENAPRP
shrunken log2 fold change: 0.116

RRIRDRPPRLPRPRPRPAYFPRP
shrunken log2 fold change: 0.128

RRIRMRPPRLPRPRPRPPLNPRP
shrunken log2 fold change: 0.584

RRIRNRPPRLPRPRPRPHPNPRP
shrunken log2 fold change: 0.0207

RRIRWRPPRLPRPRPRPNKWPRP
shrunken log2 fold change: -0.0175

RRIRYRPPRLPRPRPRPCEDPRP
shrunken log2 fold change: -0.371

RRIRWRPPRLPRPRPRPDPEPRP
shrunken log2 fold change: 0.159

RRIRLRPPRLPRPRPRPDIWPRP
shrunken log2 fold change: -0.137

RRIRFRPPRLPRPRPRPDYSPRP
shrunken log2 fold change: -0.458

RRIRYRPPRLPRPRPRPCANPRP
shrunken log2 fold change: -0.0013

RRIRIRPPRLPRPRPRPPWKPRP
shrunken log2 fold change: 0.089

RRIRQRPPRLPRPRPRPVVFPRP
shrunken log2 fold change: 1.25

RRIRARPPRLPRPRPRPQGMPRP
shrunken log2 fold change: 0.233

RRIRDRPPRLPRPRPRPTLDPRP
shrunken log2 fold change: 0.784

RRIRLRPPRLPRPRPRPRMWPRP
shrunken log2 fold change: 0.458

RRIRIRPPRLPRPRPRPKQYPRP
shrunken log2 fold change: -0.474

RRIRERPPRLPRPRPRPIEIPRP
shrunken log2 fold change: -0.186

RRIRVRPPRLPRPRPRPQHQPRP
shrunken log2 fold change: -0.571

RRIRERPPRLPRPRPRPCGCPRP
shrunken log2 fold change: -0.0805

RRIRIRPPRLPRPRPRPKRDPRP
shrunken log2 fold change: -0.106

RRIRLRPPRLPRPRPRPQNNPRP
shrunken log2 fold change: -0.585

RRIRKRPPRLPRPRPRPGFIPRP
shrunken log2 fold change: -0.307

RRIRTRPPRLPRPRPRPVDVPRP
shrunken log2 fold change: -0.236

RRIRVRPPRLPRPRPRPNAIPRP
shrunken log2 fold change: 0.0894

RRIRPRPPRLPRPRPRPPAPPRP
shrunken log2 fold change: 0.629

RRIRTRPPRLPRPRPRPAHEPRP
shrunken log2 fold change: 0.197

RRIRVRPPRLPRPRPRPEPRPRP
shrunken log2 fold change: 0.708

RRIRNRPPRLPRPRPRPAKSPRP
shrunken log2 fold change: 0.163

RRIRQRPPRLPRPRPRPDAGPRP
shrunken log2 fold change: -0.0738

RRIRGRPPRLPRPRPRPLSGPRP
shrunken log2 fold change: 0.675

RRIRRRPPRLPRPRPRPYMPPRP
shrunken log2 fold change: -0.186

RRIRERPPRLPRPRPRPDHKPRP
shrunken log2 fold change: -0.501

RRIRARPPRLPRPRPRPNGEPRP
shrunken log2 fold change: 0.189

RRIRRRPPRLPRPRPRPTGFPRP
shrunken log2 fold change: 0.728

RRIRFRPPRLPRPRPRPRRDPRP
shrunken log2 fold change: 0.798

RRIRVRPPRLPRPRPRPLFAPRP
shrunken log2 fold change: 0.477

RRIRSRPPRLPRPRPRPGEPPRP
shrunken log2 fold change: -0.054

RRIRRRPPRLPRPRPRPLGGPRP
shrunken log2 fold change: 0.376

RRIRVRPPRLPRPRPRPQRVPRP
shrunken log2 fold change: 0.0942

RRIRPRPPRLPRPRPRPFWEPRP
shrunken log2 fold change: -0.0196

RRIRTRPPRLPRPRPRPKHEPRP
shrunken log2 fold change: -0.3

RRIRMRPPRLPRPRPRPQDPPRP
shrunken log2 fold change: 0.786

RRIRHRPPRLPRPRPRPTKNPRP
shrunken log2 fold change: -0.312

RRIRERPPRLPRPRPRPRKAPRP
shrunken log2 fold change: 0.444

RRIRIRPPRLPRPRPRPDGIPRP
shrunken log2 fold change: -0.0104

RRIRLRPPRLPRPRPRPQMHPRP
shrunken log2 fold change: -0.295

RRIRTRPPRLPRPRPRPVMEPRP
shrunken log2 fold change: 0.187

RRIRHRPPRLPRPRPRPISNPRP
shrunken log2 fold change: -0.779

RRIRCRPPRLPRPRPRPVYWPRP
shrunken log2 fold change: 0.134

RRIRMRPPRLPRPRPRPDTAPRP
shrunken log2 fold change: 1.24

RRIRKRPPRLPRPRPRPNTPPRP
shrunken log2 fold change: 0.221

RRIRIRPPRLPRPRPRPFYTPRP
shrunken log2 fold change: -0.324

RRIRKRPPRLPRPRPRPDYFPRP
shrunken log2 fold change: 0.0333

RRIRDRPPRLPRPRPRPIMSPRP
shrunken log2 fold change: -0.0134

RRIRTRPPRLPRPRPRPKDNPRP
shrunken log2 fold change: -0.5

RRIRYRPPRLPRPRPRPECIPRP
shrunken log2 fold change: -0.00318

RRIRVRPPRLPRPRPRPAFPPRP
shrunken log2 fold change: 0.246

RRIRYRPPRLPRPRPRPRHFPRP
shrunken log2 fold change: -0.209

RRIRKRPPRLPRPRPRPYDMPRP
shrunken log2 fold change: -0.0843

RRIRMRPPRLPRPRPRPSFTPRP
shrunken log2 fold change: -0.0116

RRIRIRPPRLPRPRPRPVHSPRP
shrunken log2 fold change: -0.0158

RRIRDRPPRLPRPRPRPHMLPRP
shrunken log2 fold change: -0.144

RRIRPRPPRLPRPRPRPFGQPRP
shrunken log2 fold change: -0.34

RRIRKRPPRLPRPRPRPNWYPRP
shrunken log2 fold change: -0.185

RRIRSRPPRLPRPRPRPCDDPRP
shrunken log2 fold change: 0.161

RRIRIRPPRLPRPRPRPVLPPRP
shrunken log2 fold change: -0.242

RRIRGRPPRLPRPRPRPFWWPRP
shrunken log2 fold change: 0.806

RRIRGRPPRLPRPRPRPHRCPRP
shrunken log2 fold change: -0.0209

RRIRKRPPRLPRPRPRPWRVPRP
shrunken log2 fold change: 0.122

RRIRDRPPRLPRPRPRPFHYPRP
shrunken log2 fold change: -0.00232

RRIRNRPPRLPRPRPRPCQQPRP
shrunken log2 fold change: -0.0105

RRIRHRPPRLPRPRPRPREDPRP
shrunken log2 fold change: -0.0018

RRIRKRPPRLPRPRPRPQLIPRP
shrunken log2 fold change: 0.0871

RRIRFRPPRLPRPRPRPYSQPRP
shrunken log2 fold change: -0.411

RRIRFRPPRLPRPRPRPYMYPRP
shrunken log2 fold change: -0.635

RRIRCRPPRLPRPRPRPHSLPRP
shrunken log2 fold change: -0.493

RRIRYRPPRLPRPRPRPHQWPRP
shrunken log2 fold change: -0.649

RRIRNRPPRLPRPRPRPHFRPRP
shrunken log2 fold change: 0.0231
